For data set [1] the following is noted: phase I studies (Herbst et al., 2010); cited from earlier work.
The test system of data set [2] is NCI 60-cancer cell panel (60 different human cancer cell lines). The experiment in a line: NCI 60-cancer cell panel, cell death. In kind it is cell-based. As for the experimental part: TAT-TRAIL was tested in an NCI 60-cancer cell panel, which included 60 different human cancer cell lines set up by the National Cancer Institute for cancer therapeutics screening. Among the 60 cell lines of various cancer types, 33 were sensitive to parental TRAIL, but 27 were resistant.

Data set [3] relates to TRAIL-sensitive cancer cell lines. Nature of the data set: Caspase activity in cancer cell lines (FIG. 8). In kind it is cell-based. The text has this:
Of the 60 NCI cancer cell lines, 33 TRAIL-sensitive cells lines become more sensitive to TAT-TRAIL, while 17 of TRAIL-resistant cell lines become sensitive to TAT-TRAIL, only 10 cell lines remain resistant.

The subject of data set [4] is Hep3B cell line. Nature of the data set: Cell viability in the Hep3B cell line (FIG. 9). It is filed as cell-based. Particulars: after 48 hours.
The test system of data set [5] is cancer cell lines. Nature of the data set: Cell death induction in cancer cell lines (Example 1). It is filed as cell-based. The text has this: Redirecting TRAIL-induced signaling away from lysosomal degradation induced massive cell death and overcame TRAIL resistance. This was done by fusing bioactive protein transduction domains (PTD—or CPPs) and signaling peptides, such as TAT peptide from HIV TAT protein, NLS (nuclear localization signal), MTS (mitochondrial targeting sequence), with TRAIL to construct a series of new TRAILs, as shown in FIG. 7.

For data set [6], the system named is OVCAR3 cells. Nature of the data set: Ovarian cancer xenograft model OVCAR3, implanted intraperitoneally. In kind it is in vivo. The conditions noted are these: intraperitoneal implant, preliminary data, FIG. 6. As for the experimental part: (§1) In vivo testing was performed using ovarian cancer xenograft models, OVCAR3 and A2780, implanted intraperitoneally.
The subject of data set [7] is A2780 cells. Nature of the data set: Ovarian cancer xenograft model A2780, implanted intraperitoneally. The conditions noted are these: intraperitoneal implant, preliminary data, FIG. 6. It is filed as in vivo. As for the experimental part: as §1
The mark [8] stands for this setting: of the 60 NCI cancer cell lines.
Where [9] appears, read: among the 60 cell lines of various cancer types.

Entries after “also recorded” stand apart in the source; their conditions may differ.

Consider “recombinant human TRAIL: recombinant human tumor necrosis factor-related apoptosis-inducing ligand tested in clinical studies”, for which the tolerability entry in data set [1] was “well tolerated”.

B1: TAT-TRAIL: fusion protein: TRAIL component fused to a 9-amino acid TAT peptide (RKKRRQRRR, SEQ ID NO:2); e.g. poly-His-TAT-hTRAIL94-281 (SEQ ID NO:3) (protein)
chain: HHHHHHRKKRRQRRRRTSEETISTVQEKQQNISPLVRERGPQRVAAHITGTRGRSNTLSSPNSKNEKALGRKINSWESSRSGHSFLSNLHLRNGELVIHEKGFYYIYSQTYFRFQEEIKENTKNDKQMVQYIYKYTSYPDPILLMKSARNSCWSKDAEYGLYSIYQGGIFELKENDRIFVSVTNEHLIDMDHEASFFGAFLVG
modifications: TAT-TRAIL
On to B1, for which, in data set [2] (TRAIL-sensitive cell lines (33 of 60), FIG. 5), the “cell death in TRAIL-sensitive cell lines compared with His-tagged parental TRAIL construct” value was “faster and massive cell death in all 33 TRAIL-sensitive cell lines”. Moreover, the “increase of potency over parental TRAIL” value in data set [2] (cell lines resistant to parental TRAIL) is given as “up to a hundred times”. For the same molecule, in data set [2] (setting [8]), the “number of TRAIL-sensitive cell lines that become more sensitive” value came to 33 and the “number of cell lines that remain resistant” value came out at 10. In addition, the “number of TRAIL-resistant cell lines in which effective cell death was executed (become sensitive)” value in data set [2] (out of the 27 cell lines resistant to parental TRAIL) came to 17. Besides, the “caspase activity compared to control and His-tagged parental TRAIL” value in data set [3] is recorded as “higher caspase activity”. In data set [4], the “IC50 (cell viability)” value is recorded as “low” and the “potency as compared to the His-tagged parental TRAIL” value is “approximately sixty times greater potency”. Moreover, the “cell death in TRAIL-resistant cancer cells” value in data set [5] (TRAIL-resistant cancer cells) is listed as “induced massive cell death in TRAIL-resistant cancer cells”. Further, in data set [5] (cancer cell lines), the “time to induce cell death” value was “less than 1 hour”. For the same molecule, in data set [5] (cancer cells and normal cells), the “potency in inducing cell death, cancer cells versus normal cells” value is listed as “remarkable high potency in inducing cell death in cancer cells but not normal cells”. Also, the antitumor effects entry in data set [6] is recorded as “notable antitumor effects; also recorded: remarkable antitumor effects”. Moreover, the antitumor effects result in data set [7] was “notable antitumor effects; also recorded: remarkable antitumor effects”.

B2: parental TRAIL: His-tagged parental TRAIL construct without TAT peptide, used as comparator (protein, UniProt P50591 39-281, looked up)
extracellular domain: TNELKQMQDKYSKSGIACFLKEDDSYWDPNDEESMNSPCWQVKWQLRQLVRKMILRTSEETISTVQEKQQNISPLVRERGPQRVAAHITGTRGRSNTLSSPNSKNEKALGRKINSWESSRSGHSFLSNLHLRNGELVIHEKGFYYIYSQTYFRFQEEIKENTKNDKQMVQYIYKYTSYPDPILLMKSARNSCWSKDAEYGLYSIYQGGIFELKENDRIFVSVTNEHLIDMDHEASFFGAFLVG
modifications: extracellular domain His tag
notes: His-tagged parental TRAIL construct without TAT peptide, used as comparator
On to B2, for which, in data set [2] (setting [9]), the “number of cell lines resistant to the agent” value was 27 and the “number of cell lines sensitive to the agent” value stood at 33.

Values taken from patent publication US20220306768A1, “REDIRECTING DEATH-INDUCING SIGNAL COMPLEX (DISC) BY MODIFYING DEATH RECEPTOR AGONIST TO INDUCE CELL DEATH FOR CANCER TREATMENT” (CITY OF HOPE, priority 2021, published 2022).
